Laboratory results as given in the supplement of paper PMC6757056.
± gives the standard deviation of the averaged measurements.

B1: library; a variant is named by its letters at N, in order (parent)
chain: GCUGUCACCGAGAAACUGUGAAGUAUAUCUUAAACCUGGGCACUUAAAAGAUAUAUGGAGUUAGUAGUGCAACCUGCUCGGUCUGAUGAGUCCNNNNNNGGACGAAACAGC

What was measured:
cyclic di-GMP [1] = variants of: B1; test: normalized RNA/DNA level without ligand (relative to sTRSVctl = 100) (log10 (% of sTRSVctl)); HEK293T; ligand: cyclic di-GMP (c-di-GMP-II aptamer); higher = less ribozyme self-cleavage, higher mRNA level; conditions: reporter: mCherry (pCS4076), ligand present: no
Summary of the method: (§1)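 Library plasmids carrying ribozyme switches linked to mCherry, or to eGFP in some ligand experiments, were transfected into HEK293T at 4 µg per 6-well well, with any ligand added 1 h earlier. Seventy-two hours on, total RNA was extracted with EDTA and reverse-transcribed, amplified, barcoded and sequenced. RNA level was RNA over DNA reads normalized to a spiked-in non-cleaving sequence or to the top sequences, then scaled and log-transformed. The top set was 25 sequences, the transform was ×100 and log10, and sequences needed ≥100 DNA reads.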

cyclic di-GMP [2] = variants of: B1; test: normalized RNA/DNA level with ligand (relative to sTRSVctl = 100) (log10 (% of sTRSVctl)); HEK293T; ligand: cyclic di-GMP (c-di-GMP-II aptamer); ligand concentration (+) RNA-Seq: 1 mM; higher = less ribozyme self-cleavage, higher mRNA level; conditions: reporter: mCherry (pCS4076), ligand present: yes
Summary of the method: as §1

| Variant | normalized RNA/DNA level without ligand (log10) (cyclic di-GMP [1]) | normalized RNA/DNA level with ligand (log10) (cyclic di-GMP [2]) |
| --- | --- | --- |
| GCUGUCACCGAGAAACUGUGAAGUAUAUCUUAAACCUGGGCACUUAAAAGAUAUAUGGAGUUAGUAGUGCAACCUGCUCGGUCUGAUGAGUCCUUAUGUGGACGAAACAGC | 1.7 ± 0.024 | 1.84 ± 0.11 |
| GCUGUCACCGAGAAACUGUGAAGUAUAUCUUAAACCUGGGCACUUAAAAGAUAUAUGGAGUUAGUAGUGCAACCUGCUCGGUCUGAUGAGUCCGUAUGUGGACGAAACAGC | 1.6045 ± 0.00047 | 1.77 ± 0.087 |
| GCUGUCACCGAGAAACUGUGAAGUAUAUCUUAAACCUGGGCACUUAAAAGAUAUAUGGAGUUAGUAGUGCAACCUGCUCGGUCUGAUGAGUCCGUAUGGGGACGAAACAGC | 1.53 ± 0.16 | 1.7 ± 0.042 |
| GCUGUCACCGAGAAACUGUGAAGUAUAUCUUAAACCUGGGCACUUAAAAGAUAUAUGGAGUUAGUAGUGCAACCUGCUCGGUCUGAUGAGUCCGUCAACGGACGAAACAGC | 1.65 ± 0.055 | 1.79 ± 0.14 |
| GCUGUCACCGAGAAACUGUGAAGUAUAUCUUAAACCUGGGCACUUAAAAGAUAUAUGGAGUUAGUAGUGCAACCUGCUCGGUCUGAUGAGUCCCUCAACGGACGAAACAGC | 1.66 ± 0.033 | 1.8 ± 0.1 |
| GCUGUCACCGAGAAACUGUGAAGUAUAUCUUAAACCUGGGCACUUAAAAGAUAUAUGGAGUUAGUAGUGCAACCUGCUCGGUCUGAUGAGUCCCUCAAAGGACGAAACAGC | 1.38 ± 0.12 | 1.59 ± 0.076 |
| GCUGUCACCGAGAAACUGUGAAGUAUAUCUUAAACCUGGGCACUUAAAAGAUAUAUGGAGUUAGUAGUGCAACCUGCUCGGUCUGAUGAGUCCUUAUUAGGACGAAACAGC | 1.68 ± 0.069 | 1.8 ± 0.13 |
| GCUGUCACCGAGAAACUGUGAAGUAUAUCUUAAACCUGGGCACUUAAAAGAUAUAUGGAGUUAGUAGUGCAACCUGCUCGGUCUGAUGAGUCCUUAUUCGGACGAAACAGC | 1.76 ± 0.073 | 1.88 ± 0.14 |
| GCUGUCACCGAGAAACUGUGAAGUAUAUCUUAAACCUGGGCACUUAAAAGAUAUAUGGAGUUAGUAGUGCAACCUGCUCGGUCUGAUGAGUCCUUAUUUGGACGAAACAGC | 1.75 ± 0.06 | 1.86 ± 0.17 |
| GCUGUCACCGAGAAACUGUGAAGUAUAUCUUAAACCUGGGCACUUAAAAGAUAUAUGGAGUUAGUAGUGCAACCUGCUCGGUCUGAUGAGUCCUUAUUGGGACGAAACAGC | 1.7 ± 0.026 | 1.83 ± 0.16 |
| GCUGUCACCGAGAAACUGUGAAGUAUAUCUUAAACCUGGGCACUUAAAAGAUAUAUGGAGUUAGUAGUGCAACCUGCUCGGUCUGAUGAGUCCAUAUUUGGACGAAACAGC | 1.67 ± 0.018 | 1.84 ± 0.11 |
| GCUGUCACCGAGAAACUGUGAAGUAUAUCUUAAACCUGGGCACUUAAAAGAUAUAUGGAGUUAGUAGUGCAACCUGCUCGGUCUGAUGAGUCCAUAUUGGGACGAAACAGC | 1.6 ± 0.052 | 1.78 ± 0.15 |
| GCUGUCACCGAGAAACUGUGAAGUAUAUCUUAAACCUGGGCACUUAAAAGAUAUAUGGAGUUAGUAGUGCAACCUGCUCGGUCUGAUGAGUCCAUAUUCGGACGAAACAGC | 1.707 ± 0.0056 | 1.84 ± 0.12 |
| GCUGUCACCGAGAAACUGUGAAGUAUAUCUUAAACCUGGGCACUUAAAAGAUAUAUGGAGUUAGUAGUGCAACCUGCUCGGUCUGAUGAGUCCAUAUUAGGACGAAACAGC | 1.56 ± 0.05 | 1.76 ± 0.057 |
| GCUGUCACCGAGAAACUGUGAAGUAUAUCUUAAACCUGGGCACUUAAAAGAUAUAUGGAGUUAGUAGUGCAACCUGCUCGGUCUGAUGAGUCCCUAUGGGGACGAAACAGC | 1.75 ± 0.049 | 1.87 ± 0.09 |
| GCUGUCACCGAGAAACUGUGAAGUAUAUCUUAAACCUGGGCACUUAAAAGAUAUAUGGAGUUAGUAGUGCAACCUGCUCGGUCUGAUGAGUCCCUAUGUGGACGAAACAGC | 1.748 ± 0.012 | 1.84 ± 0.088 |
| GCUGUCACCGAGAAACUGUGAAGUAUAUCUUAAACCUGGGCACUUAAAAGAUAUAUGGAGUUAGUAGUGCAACCUGCUCGGUCUGAUGAGUCCGUAUUCGGACGAAACAGC | 1.48 ± 0.036 | 1.7 ± 0.11 |
| GCUGUCACCGAGAAACUGUGAAGUAUAUCUUAAACCUGGGCACUUAAAAGAUAUAUGGAGUUAGUAGUGCAACCUGCUCGGUCUGAUGAGUCCGUAUUAGGACGAAACAGC | 1.578 ± 0.0077 | 1.75 ± 0.1 |
| GCUGUCACCGAGAAACUGUGAAGUAUAUCUUAAACCUGGGCACUUAAAAGAUAUAUGGAGUUAGUAGUGCAACCUGCUCGGUCUGAUGAGUCCAUAUGUGGACGAAACAGC | 1.623 ± 0.0061 | 1.8 ± 0.15 |
| GCUGUCACCGAGAAACUGUGAAGUAUAUCUUAAACCUGGGCACUUAAAAGAUAUAUGGAGUUAGUAGUGCAACCUGCUCGGUCUGAUGAGUCCUUCAAAGGACGAAACAGC | 1.611 ± 0.0055 | 1.79 ± 0.057 |
| GCUGUCACCGAGAAACUGUGAAGUAUAUCUUAAACCUGGGCACUUAAAAGAUAUAUGGAGUUAGUAGUGCAACCUGCUCGGUCUGAUGAGUCCAUCAAGGGACGAAACAGC | 1.57 ± 0.1 | 1.76 ± 0.062 |
| GCUGUCACCGAGAAACUGUGAAGUAUAUCUUAAACCUGGGCACUUAAAAGAUAUAUGGAGUUAGUAGUGCAACCUGCUCGGUCUGAUGAGUCCAUCAACGGACGAAACAGC | 1.61 ± 0.063 | 1.8 ± 0.09 |
| GCUGUCACCGAGAAACUGUGAAGUAUAUCUUAAACCUGGGCACUUAAAAGAUAUAUGGAGUUAGUAGUGCAACCUGCUCGGUCUGAUGAGUCCAUCAAAGGACGAAACAGC | 1.57 ± 0.059 | 1.77 ± 0.074 |
| GCUGUCACCGAGAAACUGUGAAGUAUAUCUUAAACCUGGGCACUUAAAAGAUAUAUGGAGUUAGUAGUGCAACCUGCUCGGUCUGAUGAGUCCCUAUUUGGACGAAACAGC | 1.59 ± 0.024 | 1.75 ± 0.08 |
| GCUGUCACCGAGAAACUGUGAAGUAUAUCUUAAACCUGGGCACUUAAAAGAUAUAUGGAGUUAGUAGUGCAACCUGCUCGGUCUGAUGAGUCCCUAUUGGGACGAAACAGC | 1.626 ± 0.0055 | 1.81 ± 0.1 |
| GCUGUCACCGAGAAACUGUGAAGUAUAUCUUAAACCUGGGCACUUAAAAGAUAUAUGGAGUUAGUAGUGCAACCUGCUCGGUCUGAUGAGUCCCUAUUCGGACGAAACAGC | 1.7 ± 0.012 | 1.85 ± 0.1 |
